# Assay results: patent US11504441B2, “Radiolabeled compounds targeting the prostate-specific membrane antigen” (PROVINCIAL HEALTH SERVICES AUTHORITY, priority 2019, dated 2022)
# Experiment: in vivo
# Parameters: species or system mice
# Details: male, NODSCID 1L2RγKO, mouse, iv, total radioactivity
smiles,measurement,setting,value
"COc1ccc(CCCC(=O)NCC(=O)N[C@@H](CCCCNC(=O)CN2CCN(CC(=O)O)CCN(CC(=O)O)CCN(CC(=O)O)CC2)C(=O)NC[C@H]2CC[C@H](C(=O)N[C@@H](Cc3c4ccccc4cc4ccccc34)C(=O)NCCCC[C@H](NC(=O)N[C@@H](COCC(=O)O)C(=O)O)C(=O)O)CC2)cc1 [177Lu-HTK04028, metal not drawn]",tissue uptake at 1 h,Adrenal glands uptake,3.25 ± 0.34 %ID/g
same,tissue uptake at 4 h,Adrenal glands uptake,2.18 ± 0.33 %ID/g
same,tissue uptake at 24 h,Adrenal glands uptake,0.73 ± 0.13 %ID/g
same,tissue uptake at 72 h,Adrenal glands uptake,0.48 ± 0.17 %ID/g
same,tissue uptake at 120 h,Adrenal glands uptake,0.33 ± 0.05 %ID/g
same,tissue uptake at 1 h,Blood uptake,17.7 ± 2.1 %ID/g
same,tissue uptake at 4 h,Blood uptake,12.2 ± 1.66 %ID/g
same,tissue uptake at 24 h,Blood uptake,0.82 ± 0.11 %ID/g
same,tissue uptake at 72 h,Blood uptake,0.05 ± 0.01 %ID/g
same,tissue uptake at 120 h,Blood uptake,0.02 %ID/g
same,tissue uptake at 1 h,Bone uptake,0.99 ± 0.21 %ID/g
same,tissue uptake at 4 h,Bone uptake,0.63 ± 0.1 %ID/g
same,tissue uptake at 24 h,Bone uptake,0.11 ± 0.02 %ID/g
same,tissue uptake at 72 h,Bone uptake,0.05 ± 0.02 %ID/g
same,tissue uptake at 120 h,Bone uptake,0.04 ± 0.02 %ID/g
same,tissue uptake at 1 h,Brain uptake,0.26 ± 0.03 %ID/g
same,tissue uptake at 4 h,Brain uptake,0.19 ± 0.02 %ID/g
same,tissue uptake at 24 h,Brain uptake,0.02 %ID/g
same,tissue uptake at 72 h,Brain uptake,0.01 %ID/g
same,tissue uptake at 1 h,Fat uptake,1.26 ± 0.21 %ID/g
same,tissue uptake at 4 h,Fat uptake,0.89 ± 0.24 %ID/g
same,tissue uptake at 24 h,Fat uptake,0.14 ± 0.02 %ID/g
same,tissue uptake at 72 h,Fat uptake,0.06 ± 0.02 %ID/g
same,tissue uptake at 120 h,Fat uptake,0.03 ± 0.01 %ID/g
same,tissue uptake at 1 h,Heart uptake,4.15 ± 0.31 %ID/g
same,tissue uptake at 4 h,Heart uptake,2.67 ± 0.31 %ID/g
same,tissue uptake at 24 h,Heart uptake,0.36 ± 0.03 %ID/g
same,tissue uptake at 72 h,Heart uptake,0.12 ± 0.03 %ID/g
same,tissue uptake at 120 h,Heart uptake,0.07 ± 0.01 %ID/g
same,tissue uptake at 1 h,Intestine uptake,1.23 ± 0.24 %ID/g
same,tissue uptake at 4 h,Intestine uptake,1.04 ± 0.12 %ID/g
same,tissue uptake at 24 h,Intestine uptake,0.23 ± 0.05 %ID/g
same,tissue uptake at 72 h,Intestine uptake,0.07 ± 0.03 %ID/g
same,tissue uptake at 120 h,Intestine uptake,0.08 ± 0.05 %ID/g
same,tissue uptake at 1 h,Kidneys uptake,8.3 ± 1.58 %ID/g
same,tissue uptake at 4 h,Kidneys uptake,9.21 ± 2.76 %ID/g
same,tissue uptake at 24 h,Kidneys uptake,4.32 ± 0.58 %ID/g
same,tissue uptake at 72 h,Kidneys uptake,1.77 ± 0.25 %ID/g
same,tissue uptake at 120 h,Kidneys uptake,1.16 ± 0.13 %ID/g
same,tissue uptake at 1 h,Lacrimal uptake,0.51 ± 0.23 %ID/g
same,tissue uptake at 4 h,Lacrimal uptake,0.39 ± 0.19 %ID/g
same,tissue uptake at 24 h,Lacrimal uptake,0.05 ± 0.04 %ID/g
same,tissue uptake at 72 h,Lacrimal uptake,0.01 ± 0.01 %ID/g
same,tissue uptake at 1 h,Liver uptake,2.93 ± 0.51 %ID/g
same,tissue uptake at 4 h,Liver uptake,2.29 ± 0.55 %ID/g
same,tissue uptake at 24 h,Liver uptake,0.54 ± 0.09 %ID/g
same,tissue uptake at 72 h,Liver uptake,0.22 ± 0.02 %ID/g
same,tissue uptake at 120 h,Liver uptake,0.31 ± 0.3 %ID/g
same,tissue uptake at 1 h,Lungs uptake,7.88 ± 1.77 %ID/g
same,tissue uptake at 4 h,Lungs uptake,5.79 ± 0.44 %ID/g
same,tissue uptake at 24 h,Lungs uptake,1.08 ± 0.72 %ID/g
same,tissue uptake at 72 h,Lungs uptake,0.18 ± 0.02 %ID/g
same,tissue uptake at 120 h,Lungs uptake,0.09 ± 0.01 %ID/g
same,tissue uptake at 1 h,Muscle uptake,1.32 ± 0.19 %ID/g
same,tissue uptake at 4 h,Muscle uptake,0.83 ± 0.09 %ID/g
same,tissue uptake at 24 h,Muscle uptake,0.11 ± 0.02 %ID/g
same,tissue uptake at 72 h,Muscle uptake,0.03 ± 0.01 %ID/g
same,tissue uptake at 120 h,Muscle uptake,0.02 %ID/g
same,tissue uptake at 1 h,Pancreas uptake,1.53 ± 0.22 %ID/g
same,tissue uptake at 4 h,Pancreas uptake,1.24 ± 0.04 %ID/g
same,tissue uptake at 24 h,Pancreas uptake,0.15 ± 0.02 %ID/g
same,tissue uptake at 72 h,Pancreas uptake,0.05 ± 0.01 %ID/g
same,tissue uptake at 120 h,Pancreas uptake,0.03 %ID/g
same,tissue uptake at 1 h,Salivary uptake,2.55 ± 0.21 %ID/g
same,tissue uptake at 4 h,Salivary uptake,1.75 ± 0.25 %ID/g
same,tissue uptake at 24 h,Salivary uptake,0.45 ± 0.1 %ID/g
same,tissue uptake at 72 h,Salivary uptake,0.19 ± 0.05 %ID/g
same,tissue uptake at 120 h,Salivary uptake,0.11 ± 0.03 %ID/g
same,tissue uptake at 1 h,Seminal uptake,1.53 ± 0.97 %ID/g
same,tissue uptake at 4 h,Seminal uptake,0.9 ± 0.2 %ID/g
same,tissue uptake at 24 h,Seminal uptake,0.12 ± 0.02 %ID/g
same,tissue uptake at 72 h,Seminal uptake,0.05 ± 0.01 %ID/g
same,tissue uptake at 120 h,Seminal uptake,0.05 ± 0.03 %ID/g
same,tissue uptake at 1 h,Spleen uptake,1.53 ± 0.23 %ID/g
same,tissue uptake at 4 h,Spleen uptake,1.44 ± 0.31 %ID/g
same,tissue uptake at 24 h,Spleen uptake,0.48 ± 0.14 %ID/g
same,tissue uptake at 72 h,Spleen uptake,0.49 ± 0.16 %ID/g
same,tissue uptake at 120 h,Spleen uptake,0.69 ± 0.36 %ID/g
same,tissue uptake at 1 h,Stomach uptake,0.51 ± 0.18 %ID/g
same,tissue uptake at 4 h,Stomach uptake,0.45 ± 0.06 %ID/g
same,tissue uptake at 24 h,Stomach uptake,0.31 ± 0.1 %ID/g
same,tissue uptake at 72 h,Stomach uptake,0.07 ± 0.07 %ID/g
same,tissue uptake at 120 h,Stomach uptake,0.1 ± 0.1 %ID/g
same,tissue uptake at 1 h,Tail uptake,4.85 ± 1.59 %ID/g
same,tissue uptake at 4 h,Tail uptake,2.21 ± 0.18 %ID/g
same,tissue uptake at 24 h,Tail uptake,0.31 ± 0.1 %ID/g
same,tissue uptake at 72 h,Tail uptake,0.15 ± 0.04 %ID/g
same,tissue uptake at 120 h,Tail uptake,0.1 ± 0.03 %ID/g
same,tissue uptake at 1 h,Testes uptake,2.26 ± 0.46 %ID/g
same,tissue uptake at 4 h,Testes uptake,2.66 ± 0.41 %ID/g
same,tissue uptake at 24 h,Testes uptake,0.55 ± 0.05 %ID/g
same,tissue uptake at 72 h,Testes uptake,0.31 ± 0.05 %ID/g
same,tissue uptake at 120 h,Testes uptake,0.22 ± 0.01 %ID/g
same,tissue uptake at 1 h,Thyroid uptake,3.3 ± 0.42 %ID/g
same,tissue uptake at 4 h,Thyroid uptake,2.3 ± 0.3 %ID/g
same,tissue uptake at 24 h,Thyroid uptake,0.52 ± 0.08 %ID/g
same,tissue uptake at 72 h,Thyroid uptake,0.24 ± 0.04 %ID/g
same,tissue uptake at 120 h,Thyroid uptake,0.13 ± 0.02 %ID/g
same,tissue uptake at 1 h,Tumor uptake,19 ± 5.86 %ID/g
same,tissue uptake at 4 h,Tumor uptake,42.6 ± 11.6 %ID/g
same,tissue uptake at 24 h,Tumor uptake,30.2 ± 2.74 %ID/g
same,tissue uptake at 72 h,Tumor uptake,26.1 ± 7.29 %ID/g
same,tissue uptake at 120 h,Tumor uptake,28.4 ± 5.11 %ID/g
